Laboratory results taken from patent US20230235039A1 (REGENECORE BIOTECH, published 2023).

B1: single-domain antibody 1B3 (VHH, expressed in E. coli) (VHH)
VHH: QVQLVESGGGSVQAGGSLRLSCAASGITASTSCMGWFRQSPGKEREGSLATIYDGSTSYADSVKGRFTISVDNAKNILYLQMNNLKPEDTAMYYCAAAKYCMFWSHPSYWGQGTQVTVSS
notes: pMECS-VHH expressed in E. coli HB2151, purified on Ni-column; not shown: C-terminal tags from vector pMECS (HA tag, and the His tag implied by Ni-column purification)
B2: single-domain antibody 1B8 (VHH, expressed in E. coli) (VHH)
VHH: QVQLVESGGGSVQAGGSLRLSCAASGITASTSCMGWFRQSPGKEREGSLATIYDGSTSYADSVKGQFTISVDNAKNILYLQMNNLKPEDTAMYYCAAAKYCMFWSHPSYWGQGTQVTVSS
notes: as for B1
B3: humanized Fc-fused single-domain antibody 2B3-V2 (Fc fusion, not shown: a dimerising Fc or GST)
chain (part 1 of 2): QVQLVESGGGSVQAGGSLRLSCAASGNTFSFSTYCMGWFRQSPGKEREGSLATIYDASTAYAGSVKGRFTISRDNSKNILYLQMNNLRAEDTAVYYCAAARYCMFWSHPSYWGQGTQVTVSS
chain (part 2 of 2): HHHHHH
notes: Humanized variant of 2B3; vector RJK-V4-hFC
B4: Fc fusion protein of anti-IL-5 single-domain antibody 2B3 (Fc fusion, not shown: a dimerising Fc or GST)
chain (part 1 of 2): QVQLVESGGGSVQAGGSLRLSCAASGNTFSFSTYCMGWFRQSPGKEREGSLATIYDGSTAYAGSVKGRFTISVDNAKNILYLQMNNLKPEDTAMYYCAAAKYCMFWSDPSYWGQGTQVTVSS
chain (part 2 of 2): HHHHHH
notes: Vector RJK-V4-hFC; also called clone 2B3
B5: humanized Fc-fused single-domain antibody 1B3-V2 (Fc fusion, not shown: a dimerising Fc or GST)
chain (part 1 of 2): QVQLVESGGGSVQAGGSLRLSCAASGITASTSCMGWFRQSPGKEREGSLATIYDASTSYADSVKGRFTISRDNSKNILYLQMNNLRAEDTAVYYCAAARYCMFWSHPSYWGQGTQVTVSS
chain (part 2 of 2): HHHHHH
notes: Humanized variant of 1B3; vector RJK-V4-hFC
B6: Fc fusion protein of anti-IL-5 single-domain antibody 1B3 (Fc fusion, not shown: a dimerising Fc or GST)
chain (part 1 of 2): QVQLVESGGGSVQAGGSLRLSCAASGITASTSCMGWFRQSPGKEREGSLATIYDGSTSYADSVKGRFTISVDNAKNILYLQMNNLKPEDTAMYYCAAAKYCMFWSHPSYWGQGTQVTVSS
chain (part 2 of 2): HHHHHH
notes: Vector RJK-V4-hFC; Embodiments name a human IgG4 Fc; also called clone 1B3

The binders below were run against T1, human recombinant IL-5 protein with a histidine tag at carboxyl terminal (human, UniProt P05113 20-134) (assay: ELISA, IL-5 protein coated on the plate, VHH titrated, anti-HA tag HRP secondary antibody, OD450).
T1 construct: range 20-134; Expressed in 293F cells; also called hrIL-5-cHis; human IL-5 protein; not shown: histidine tag at carboxyl terminal
Method: 50 μL of 1 μg/mL IL-5 protein was coated on an ELISA plate at 4° C. overnight. The plate was washed. 200 μL of 5% milk was added for blocking at 37° C. for 1 h. The IL-5 protein-specific single-domain antibody (VHH) obtained in Example 1 was diluted to 2 μg/mL, and then diluted by a 5-fold gradient, in a total of 8 concentration gradients. The plate was washed. 50 μL of antibody was added in duplicate wells, and then incubated at 37° C. for 1 h. The plate was washed. 50 μL of mouse anti-HA tag HRP secondary antibody was added, and then incubated at 37° C. for 30 min. The plate was washed (for multiple times). 50 μL of TMB that had been restored to room temperature was added to react at room temperature in the dark for 15 min. 50 µL of stopping solution (1N HCl) was added. The resultant was measured using a microplate reader and then recorded. The curve was plotted.
In the case of B1, the “EC50 (read off the curve)” value is reported as roughly 6 nM. With B2 the “EC50 (read off the curve)” value was roughly 4 nM.

The binders below were run against T1, human recombinant IL-5 protein with a … (assay: BLI (Octet 96), binding molecule on sensor, IL-5 antigen 200 nM and 2-fold dilutions).
Method: Formulation of SD buffer: A proper amount of bovine serum albumin and Tween 20 were dissolved in 1×PBS (pH 7.4), so that the mass (or volume) fractions of bovine serum albumin and Tween 20 were 0.1% and 0.02% respectively. The IL-5 binding molecule was formulated in the SD buffer to a concentration of 10 μg/mL. Formulation of antigen working solution: the antigen was formulated in the SD buffer to 200 nM, and then diluted by a 2-fold gradient in a total of 5 concentration gradients. In addition, a blank control of SD buffer was also provided. A proper amount of 0.1M glycine stock solution was diluted by 10-fold in deionized water and mixed uniformly, to obtain a regeneration solution. Octet 96 and the Data Acquisition software in its supporting computer were run. The bottom and side of the acquisition probe were cleaned using a lens tissue with a proper amount of 75% ethanol. The instrument was pre-warmed for 15 min or more. Sensor pre-wetting: sensor was soaked in the SD buffer for 10 min or more before the assay. Then, the machine procedure was set according to baseline→antibody→baseline→binding antigen→dissociating antigen→regenerating sensor for assay operation.
With B3 the Kd was 2.06 nM, the koff was 0.000406 s⁻¹ and the kon was 197000 M⁻¹ s⁻¹. In the case of B4, the Kd is reported as 1.6 nM, the koff is reported as 0.000295 s⁻¹ and the kon is reported as 184000 M⁻¹ s⁻¹. With B5 the Kd was 1.02 nM, the koff was 0.000184 s⁻¹ and the kon was 180000 M⁻¹ s⁻¹. B6 showed a Kd of 0.88 nM, a koff of 0.000132 s⁻¹ and a kon of 149000 M⁻¹ s⁻¹.
